Patent US20110306044A1
Several values for one entry are separate records, joined by “and”; a condition that tells them apart may be missing. Equal values may be shown once.

Assays:
[1] = target: RDC-1 (NEOKINE receptor), transiently expressed in 293 cells; test: 125I-T112 at 0.1 nm on 293 cells transiently transfected with RDC-1, no competitor
[2] = target: RDC-1 (NEOKINE receptor), transiently expressed in 293 cells; test: competition: bound 125I-T112 on RDC-1-transfected 293 cells with unlabelled T112 at 3.0 nm

Substance: 125I-T112 (radioiodinated NEOKINE) (ligand)
- cpm bound in cell pellets [1]: 37600 cpm and 27000 cpm

Substance: T112 (NEOKINE), unlabelled (ligand)
- cpm bound in cell pellets [2]: 8340 cpm and 9230 cpm
